Measured values published in publication PMC5313200.

What follows are substances tested against mitochondrial antiviral signaling protein (MAVS), from pCMV-FLAG-MAVS (UniProt Q8VCF0) (assay: co-immunoprecipitation with quantitative western blot). Settings: 293T cells co-transfected with MAVS and viperin mutant; at least 3 independent experiments; parent: est. 100; read off a plot.
For “viperin (Virus Inhibitory Protein, Endoplasmic Reticulum-associated, interferon-inducible), wild type, from pcDNA3.1-viperin (from UniProt Q8CBB9) C84A”, the percent of parent was 93 % WT. “viperin (Virus Inhibitory Protein, Endoplasmic Reticulum-associated, interferon-inducible), wild type, from pcDNA3.1-viperin (from UniProt Q8CBB9) F90A” showed a percent of parent of 160 % WT. With “viperin (Virus Inhibitory Protein, Endoplasmic Reticulum-associated, interferon-inducible), wild type, from pcDNA3.1-viperin (from UniProt Q8CBB9) G117A” the percent of parent was 20 % WT. Substance “viperin (Virus Inhibitory Protein, Endoplasmic Reticulum-associated, interferon-inducible), wild type, from pcDNA3.1-viperin (from UniProt Q8CBB9) H79A” has a percent of parent of 140 % WT. For “viperin (Virus Inhibitory Protein, Endoplasmic Reticulum-associated, interferon-inducible), wild type, from pcDNA3.1-viperin (from UniProt Q8CBB9) H93A”, the percent of parent was 90 % WT. “viperin (Virus Inhibitory Protein, Endoplasmic Reticulum-associated, interferon-inducible), wild type, from pcDNA3.1-viperin (from UniProt Q8CBB9) K96A” showed a percent of parent of 81 % WT. In the case of “viperin (Virus Inhibitory Protein, Endoplasmic Reticulum-associated, interferon-inducible), wild type, from pcDNA3.1-viperin (from UniProt Q8CBB9) K120A”, the percent of parent is reported as 12 % WT. For “viperin (Virus Inhibitory Protein, Endoplasmic Reticulum-associated, interferon-inducible), wild type, from pcDNA3.1-viperin (from UniProt Q8CBB9) N77A”, the percent of parent was 83 % WT. In the case of “viperin (Virus Inhibitory Protein, Endoplasmic Reticulum-associated, interferon-inducible), wild type, from pcDNA3.1-viperin (from UniProt Q8CBB9) N85A”, the percent of parent is reported as 100 % WT. “viperin (Virus Inhibitory Protein, Endoplasmic Reticulum-associated, interferon-inducible), wild type, from pcDNA3.1-viperin (from UniProt Q8CBB9) P73A” gave a percent of parent of 220 % WT. For “viperin (Virus Inhibitory Protein, Endoplasmic Reticulum-associated, interferon-inducible), wild type, from pcDNA3.1-viperin (from UniProt Q8CBB9) R82A”, the percent of parent was 66 % WT. Work on “viperin (Virus Inhibitory Protein, Endoplasmic Reticulum-associated, interferon-inducible), wild type, from pcDNA3.1-viperin (from UniProt Q8CBB9) S75A” yielded a percent of parent of 57 % WT. Substance “viperin (Virus Inhibitory Protein, Endoplasmic Reticulum-associated, interferon-inducible), wild type, from pcDNA3.1-viperin (from UniProt Q8CBB9) T81A” has a percent of parent of 240 % WT. “viperin (Virus Inhibitory Protein, Endoplasmic Reticulum-associated, interferon-inducible), wild type, from pcDNA3.1-viperin (from UniProt Q8CBB9) T94A” showed a percent of parent of 30 % WT. “viperin (Virus Inhibitory Protein, Endoplasmic Reticulum-associated, interferon-inducible), wild type, from pcDNA3.1-viperin (from UniProt Q8CBB9) T97A” was tested, and the percent of parent was 45 % WT. “viperin (Virus Inhibitory Protein, Endoplasmic Reticulum-associated, interferon-inducible), wild type, from pcDNA3.1-viperin (from UniProt Q8CBB9) Y86A” was tested, and the percent of parent was 120 % WT.
